Reference: IntAct's records for PubMed 15585574

Target: wasl_mouse Wasl (UniProt Q91YD9)
Sequence (Q91YD9 whole entry): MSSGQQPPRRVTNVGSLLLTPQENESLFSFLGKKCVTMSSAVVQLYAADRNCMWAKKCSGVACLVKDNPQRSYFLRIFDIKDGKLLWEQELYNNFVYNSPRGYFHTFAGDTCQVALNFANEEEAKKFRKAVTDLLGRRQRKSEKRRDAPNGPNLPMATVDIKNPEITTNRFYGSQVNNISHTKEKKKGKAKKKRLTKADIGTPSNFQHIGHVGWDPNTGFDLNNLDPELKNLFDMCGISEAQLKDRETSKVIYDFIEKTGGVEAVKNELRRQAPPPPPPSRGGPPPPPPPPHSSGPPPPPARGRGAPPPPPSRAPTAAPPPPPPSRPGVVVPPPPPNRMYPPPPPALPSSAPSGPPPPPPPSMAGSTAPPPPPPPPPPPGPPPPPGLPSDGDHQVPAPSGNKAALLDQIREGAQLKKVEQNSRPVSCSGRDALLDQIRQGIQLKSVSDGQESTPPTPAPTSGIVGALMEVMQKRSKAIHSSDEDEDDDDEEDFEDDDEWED

Sequence of Src substrate cortactin (Mus musculus), Q60598 W525L (Q60598 whole entry W525L): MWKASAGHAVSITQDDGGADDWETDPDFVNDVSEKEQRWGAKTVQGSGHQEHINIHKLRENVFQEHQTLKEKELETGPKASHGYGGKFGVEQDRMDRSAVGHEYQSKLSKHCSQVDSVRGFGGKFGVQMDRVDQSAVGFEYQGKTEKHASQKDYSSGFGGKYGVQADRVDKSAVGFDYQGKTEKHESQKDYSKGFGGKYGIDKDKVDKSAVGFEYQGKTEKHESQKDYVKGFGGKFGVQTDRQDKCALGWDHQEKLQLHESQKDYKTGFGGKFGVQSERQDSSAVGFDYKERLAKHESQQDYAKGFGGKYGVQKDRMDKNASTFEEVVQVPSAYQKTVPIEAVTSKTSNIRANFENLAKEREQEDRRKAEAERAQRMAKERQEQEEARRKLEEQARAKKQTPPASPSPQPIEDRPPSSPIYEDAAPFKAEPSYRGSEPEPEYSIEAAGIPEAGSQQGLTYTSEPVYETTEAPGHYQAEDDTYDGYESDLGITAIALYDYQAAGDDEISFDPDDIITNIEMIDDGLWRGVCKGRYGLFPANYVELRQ

## Src substrate cortactin (Mus musculus), Q60598 W525L
  effect of a mutation on the interaction: disrupting interaction
